Measured values as given in the RNAGym collection of RNA variant scans (doi:10.1073/pnas.2313332121).
This sample holds only a part of the variants without activity.

B1: TPR 5TU (parent)
chain: GGAUCUUCUCGAUCUAACAAAAAAGACAAAUCUGCCACAAAGCUUGAGAGCAUCUUCGGAUGCAGAGGCGGCAGCCUUCGGUGGCGCGAUAGCGCCAACGUUCUCAACUAUGACACGCAAAACGCGUGCUCCGUUGAAUGGAGUUUAUCAUG

Variants of: B1
Assay: polymerase ribozyme fitness, log enrichment relative to wild type (log ratio); higher = more active; in vitro selection for triplet polymerase activity
Procedure, shortened: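 Fitness measures genotype enrichment against wild-type enrichment on a logarithmic scale, with inverse-variance-weighted averaging of replicates. The logarithm is base 2, and genotypes were kept only with ≥10 input reads and ≥1 read per output in Illumina sequencing. The sequenced libraries came from one triplicate in vitro selection round, including frozen incubation at −7 °C, of PCR-built, transcribed mutant libraries of each subunit of a heterodimeric triplet polymerase ribozyme.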

Row | Variant | polymerase ribozyme fitness (log ratio)
1 | C96A C125U U130C | -0.299
2 | G92U G112C | -2.95
3 | G94A U148A | -3.08
4 | G94A U148C | -2.75
5 | C93G C105A G136U | ≤ -4.2
6 | C93A G94A | -2.93
7 | G94A U146G | -1.25
8 | C93A A138G G143C | -3.66
9 | C93A C125U | -2.47
10 | C96A C125A | -0.718
11 | C93G C103G | ≤ -4.2
12 | C93U A142U | -1.68
13 | C93U A142C | -0.842
14 | C95U C96G U135G U144G A147C | -4.2
15 | C93U A106C C129G G143A | -3.64
16 | C95A | 0.441
17 | C95U | -0.031
18 | C93A G140A | -4.11
19 | C93A A113U | -4.07
20 | C93A A98U C125G C131U | -2.4
21 | G94A G141A A150U | ≤ -4.2

Row | Variant | polymerase ribozyme fitness (log ratio)
22 | C93A C118U C125A A142G | ≤ -4.2
23 | G94A A110G | -2.35
24 | G94U A150G | -2.5
25 | G94U A150U | -0.849
26 | G94C U145G | -0.944
27 | C93U C95U C131U | -0.998
28 | G94A G133U | -3.19
29 | G94A G133C | -2.71
30 | G94A A97U | -1
31 | G94U U104C G117U U134A | -2.96
32 | G94A C114U | -1.93
33 | C96A C103G | -2.53
34 | C95A C108G | ≤ -4.2
35 | G92U U104G | -0.858
36 | C93A C96G A97C U148A | ≤ -4.2
37 | C93G U102G | ≤ -4.2
38 | C93U U102G G117U U135A | ≤ -4.2
39 | C93A C132A | ≤ -4.2
40 | C95U C96A C99U C108U | -4.11
41 | C93G A97U U145G | ≤ -4.2
42 | C93U C95U U102A A106G | -2.87

Row | Variant | polymerase ribozyme fitness (log ratio)
43 | G92U C125U | -1.4
44 | C93U C114A | -3.41
45 | C93G A147U | -1.74
46 | G92U G136C | -3.44
47 | C96A U101C U109A C118A | -1.54
48 | C93A C95G | ≤ -4.2
49 | C93A C95U | -3.37
50 | C95A C96A U104C A142C | -4.07
51 | C93A C116G A142G | -3.07
52 | G94C A97U A150G | -1.52
53 | C96A C125U G143A | -3.57
54 | C95U C131G | -3.24
55 | C95A U101C | 0.62
56 | C96A U144A | -0.177
57 | G92U U148A | -2.71
58 | G94A C96G | -2.1
59 | C93U C116U C123A | -1.16
60 | C96A G143C | -2.38
61 | C93U C116U A122U | -1.45
62 | C96A U139C | -3.61
63 | C93U A107U | -4.04

Row | Variant | polymerase ribozyme fitness (log ratio)
64 | C95U G100U U104G C114U G141C A150C | ≤ -4.2
65 | C93G G140C | ≤ -4.2
66 | C93G G94U C95A G128A | ≤ -4.2
67 | C93U U101A | -2.19
68 | C93A A120U | -3.4
69 | C93U A97C | -0.557
70 | C93U A97U | -2.14
71 | C96A G126A U139G U151C | ≤ -4.2
72 | C93G C116U | -3.07
73 | G94A C105A | -1.65
74 | C96A C105G C125A | -2.29
75 | G94A G117U | -0.469
76 | G94U C129G A147U | ≤ -4.2
77 | G94A G143U | -3.57
78 | G94A G143A | -1.01
79 | G94A G141U | 0.898
80 | G94A G141A | 0.172
81 | G94A G141C | -2.23
82 | C95A A98G | 0.372
83 | C93U C123G A138C | ≤ -4.2
84 | G94C C129G | -3.39
